Laboratory results as given in patent US20030073142A1 (published 2003).

target: human MHC-I HLA-A2.1 expressed on RMA-S-A2.1 cells (murine TAP-deficient RMA-S cells engineered to express … (human, UniProt A*02:01)); assay: cell-based or functional assay

HLA-A2.1-specific fluorescence intensity (FACS, surface HLA-A2.1 on TAP-deficient RMA-S-A2.1 cells after overnight incubation with 50 micromoles per liter peptide), 1 log:
TQSPSVFPL [test peptide number 539.10 (human IgE CH1 nonamer, Thr Gln Ser Pro Ser Val Phe Pro Leu)]
WVDNKTFSV [test peptide number 539.12 (human IgE CH1 nonamer, Trp Val Asp Asn Lys Thr Phe Ser Val)]
LLTVSGAWA [test peptide number 539.8 (human IgE CH1 nonamer, Leu Leu Thr Val Ser Gly Ala Trp Ala)]
QLPDARHST [test peptide number 539.9 (human IgE CH4 nonamer, Gln Leu Pro Asp Ala Arg His Ser Thr)]
WLSDRTYTC [test peptide number 539.11 (human IgE CH2 nonamer, Trp Leu Ser Asp Arg Thr Tyr Thr Cys)]
